Experimental data published in patent publication US20190276551A1.

Target: human CD38 protein immobilised on AR2G biosensor (human) (UniProt P28907)
Assay: Octet BLI, immobilised CD38

## Daratumumab scFv
  koff: 0.0044 s⁻¹
